According to patent US12303551B2, “Cellular immunotherapy compositions and uses thereof” (CERO THERPEUTICS HOLDINGS, INC., priority 2018, dated 2025):

B1: CER116: Chimeric engulfment receptor: Tim4 binding, Tim4 transmembrane, TRAF6 and TLR8 signaling; SEQ ID NO: 152 (protein)
chain: MSKGLLLLWLVTELWWLYLTPAASEDTIIGFLGQPVTLPCHYLSWSQSRNSMCWGKGSCPNSKCNAELLRTDGTRIISRKSTKYTLLGKVQFGEVSLTISNTNRGDSGVYCCRIEVPGWFNDVKKNVRLELRRATTTKKPTTTTRPTTTPYVTTTTPELLPTTVMTTSVLPTTTPPQTLATTAFSTAVTTCPSTTPGSFSQETTKGSAFTTESETLPASNHSQRSMMTISTDIAVLRPTGSNPGILPSTSQLTTQKTTLTTSESLQKTTKSHQINSRQTILIIACCVGFVLMVLLFLAFLMSLLNCENSCGSSQSESDCCVAMASSCSAVTKDDSVGGTASTGNLSSSFMEEIQGYDVEFDPPLESKYECPICLMALREAVQTPCGHRFCKACIIKSIRDAGHKCPVDNEILLENQLFPDNFAKREILSLMVKCPNEGCLHKMELRHLEDHQAHCEFALMDCPQCQRPFQKFHINIHILKDCPRRQVSCDNCAASMAFEDKEIHDQNCPLANVICEYCNTILIREQMPNHYDLDCPTAPIPCTFSTFGCHEKMQRNHLARHLQENTQSHMRMLAHHLFYWDVWFIYNVCLAKVKGYRSLSTSQTFYDAYISYDTKDASVTDWVINELRYHLEESRDKNVLLCLEERDWDPGLAIIDNLMQSINQSKKTVFVLTKKYAKSWNFKTAFYLALQRLMDENMDVIIFILLEPVLQHSQYLRLRQRICKSSILQWPDNPKAEGLFWQTLRNVVLTENDSRYNNMYVDSIKQY
modifications: CER116, amino acids 1-22 are signal peptide
B2: CER117: Chimeric engulfment receptor: Tim4 binding, Tim4 transmembrane, TLR8 and TRAF6 signaling; SEQ ID NO: 153 (protein)
chain: MSKGLLLLWLVTELWWLYLTPAASEDTIIGFLGQPVTLPCHYLSWSQSRNSMCWGKGSCPNSKCNAELLRTDGTRIISRKSTKYTLLGKVQFGEVSLTISNTNRGDSGVYCCRIEVPGWFNDVKKNVRLELRRATTTKKPTTTTRPTTTPYVTTTTPELLPTTVMTTSVLPTTTPPQTLATTAFSTAVTTCPSTTPGSFSQETTKGSAFTTESETLPASNHSQRSMMTISTDIAVLRPTGSNPGILPSTSQLTTQKTTLTTSESLQKTTKSHQINSRQTILIIACCVGFVLMVLLFLAFLHHLFYWDVWFIYNVCLAKVKGYRSLSTSQTFYDAYISYDTKDASVTDWVINELRYHLEESRDKNVLLCLEERDWDPGLAIIDNLMQSINQSKKTVFVLTKKYAKSWNFKTAFYLALQRLMDENMDVIIFILLEPVLQHSQYLRLRQRICKSSILQWPDNPKAEGLFWQTLRNVVLTENDSRYNNMYVDSIKQYMSLLNCENSCGSSQSESDCCVAMASSCSAVTKDDSVGGTASTGNLSSSFMEEIQGYDVEFDPPLESKYECPICLMALREAVQTPCGHRFCKACIIKSIRDAGHKCPVDNEILLENQLFPDNFAKREILSLMVKCPNEGCLHKMELRHLEDHQAHCEFALMDCPQCQRPFQKFHINIHILKDCPRRQVSCDNCAASMAFEDKEIHDQNCPLANVICEYCNTILIREQMPNHYDLDCPTAPIPCTFSTFGCHEKMQRNHLARHLQENTQSHMRMLA
modifications: CER117, amino acids 1-22 are signal peptide
B3: CER104: Chimeric engulfment receptor: Tim4 binding, Tim4 transmembrane, TLR8 and DAP12 signaling; SEQ ID NO: 139 (protein)
chain: MSKGLLLLWLVTELWWLYLTPAASEDTIIGFLGQPVTLPCHYLSWSQSRNSMCWGKGSCPNSKCNAELLRTDGTRIISRKSTKYTLLGKVQFGEVSLTISNTNRGDSGVYCCRIEVPGWFNDVKKNVRLELRRATTTKKPTTTTRPTTTPYVTTTTPELLPTTVMTTSVLPTTTPPQTLATTAFSTAVTTCPSTTPGSFSQETTKGSAFTTESETLPASNHSQRSMMTISTDIAVLRPTGSNPGILPSTSQLTTQKTTLTTSESLQKTTKSHQINSRQTILIIACCVGFVLMVLLFLAFLHHLFYWDVWFIYNVCLAKVKGYRSLSTSQTFYDAYISYDTKDASVTDWVINELRYHLEESRDKNVLLCLEERDWDPGLAIIDNLMQSINQSKKTVFVLTKKYAKSWNFKTAFYLALQRLMDENMDVIIFILLEPVLQHSQYLRLRQRICKSSILQWPDNPKAEGLFWQTLRNVVLTENDSRYNNMYVDSIKQYYFLGRLVPRGRGAAEAATRKQRITETESPYQELQGQRSDVYSDLNTQRPYYK
modifications: CER104, amino acids 1-22 are signal peptide

Tested on: HPV+ SCC152 target cells
Assay: Mass cytometry (CyTOF) viSNE marker analysis of CER-transduced CD4+ T cells after antigen encounter
Assay type: cell-based
Conditions: for memory formation after antigen encounter: CER-transduced CD4+ T cells; for viSNE islands expressing T cell activation marker CD69 / viSNE islands expressing intracellular marker IFNγ: CER-transduced CD4+ T cells co-cultured with E7 TCR CD8+ T cells and SCC152; for viSNE islands expressing naïve T cell marker CD45RA within the CCR7+ population: compared to controls
Source text: FIG. 64A-64B show viSNE maps of mass cytometry data of CER-transduced CD4+ T cells upon antigen encounter. CER-transduced CD4+ T cells were co-cultured with E7-specific TCR-transduced CD8+ T cells and HPV+ SCC152 target cells and then interrogated by mass cytometry (CyTof). Intact CER-CD4+ T cells are shown in plots displaying tSNE1 and tSNE2 axes. Nine intracellular markers were used for the viSNE analysis. Each dot represents a single cell. […] FIG. 64B: Populations of CD4^+ T cells were generated using a clustering algorithm from all 32 markers and overlaid onto the viSNE map.
(§1) FIGS. 65A-65B show viSNE maps of mass cytometry data of CER-expressing CD4+ T cells upon antigen encounter. CER-transduced CD4+ T cells were co-cultured with E7-specific TCR-transduced CD8+ T cells and HPV+ SCC152 target cells and then interrogated by mass cytometry (CyTof). Intact CER-CD4+ T cells are shown in plots displaying tSNE1 and tSNE2 axes. Eighteen cell surface markers were used for the viSNE analysis. Each dot represents a single cell. FIG. 65A: Populations of CD4^+ T cells were generated using a clustering algorithm from all 18 markers and overlaid onto the viSNE map. […] FIG. 65B: Color plots show the phenotype across viSNE ‘islands.’ Red represents high expression and blue represents low expression for each marker. Highlighted region indicates cells expressing T cell activation marker CD69.
as §1, with “FIGS. 66A-66B” for “FIGS. 65A-65B”, “FIG. 66A:” for “FIG. 65A:”, “FIG. 66B:” for “FIG. 65B:”, “cells the naïve” for “cells expressing”, “cell” for “cell activation”, “marker CD45RA.” for “marker CD69.”
CD4+ T cells were transduced with lentiviral vector comprising CER104, CER116, or CER117 nucleic acid. CER104 (SEQ ID NO:139) comprises a Tim4 binding domain, Tim4 transmembrane domain, and an engulfment signaling domain comprising a primary engulfment signaling domain comprising a TLR8 signaling domain and a secondary engulfment signaling domain comprising a DAP12 signaling domain. CER116 (SEQ ID NO:152) comprises a Tim4 binding domain, Tim4 transmembrane domain, and an engulfment signaling domain comprising a primary engulfment signaling domain comprising a TRAF6 signaling domain and a secondary engulfment signaling domain comprising a TLR8 signaling domain. CER117 (SEQ ID NO:153) comprises a Tim4 binding domain, Tim4 transmembrane domain, and an engulfment signaling domain comprising a primary engulfment signaling domain comprising a TLR8 signaling domain and a secondary engulfment signaling domain comprising a TRAF6 signaling domain. CER-transduced CD4+ T cells were co-cultured with E7 TCR-transduced CD8+ T cells and HPV+ SCC152 target cells and interrogated by mass cytometry (CyTOF) with viSNE for visualization of high dimensional single cell data (FIGS. 64-66). Intact CER-transduced CD4+ T cells are shown in plots displaying tSNE1 (horizontal) and tSNE2 (vertical) axes. 27 intracellular markers were used for the viSNE analysis. Each dot represents a single cell. […] Red represents high expression and blue represents low expression for each marker. Populations of CD4^+ T cells were generated using a clustering algorithm from all 27 markers and overlaid onto the viSNE map. […] Populations of CD4^+ T cells were generated using a clustering algorithm from all 18 markers and overlaid onto the viSNE map (FIG. 65A). […]

Molecule	memory formation after antigen encounter	viSNE islands expressing T cell activation marker CD69	viSNE islands expressing intracellular marker IFNγ	viSNE islands expressing naïve T cell marker CD45RA within the CCR7+ population
B1	associated with memory formation after antigen encounter	enrichment of islands expressing the T cell activation marker CD69	enrichment of islands expressing the intracellular marker IFNγ	loss of islands expressing the naïve T cell marker CD45RA
B2	–	–	enrichment of islands expressing the intracellular marker IFNγ	–
B3	associated with memory formation after antigen encounter	enrichment of islands expressing the T cell activation marker CD69	enrichment of islands expressing the intracellular marker IFNγ	loss of islands expressing the naïve T cell marker CD45RA
